# The supplement of paper PMC9112550, “Optimization of the antimicrobial peptide Bac7 by deep mutational scanning” (BMC Biology, 2022)
# Test system: Escherichia coli TOP10
# Assay: shrunken log2 fold change of peptide-encoding DNA abundance (4.5 h post-induction vs induction); higher = less antimicrobial activity (less host growth inhibition)
# Settings: time post-induction: 4.5 h; library: site-saturation at positions 5, 18, 19, 20
# 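Note: peptides expressed intracellularly from a pBAD plasmid library in pooled LB shake-flask culture, induced with 0.3% L-arabinose, DNA abundance read by NGS, three biological replicates, DESeq2 with apeglm shrinkage.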
row,Sequence,shrunken log2 fold change
1,RRIRDRPPRLPRPRPRPDMQPRP,1.13
2,RRIRERPPRLPRPRPRPETDPRP,-0.0989
3,RRIRVRPPRLPRPRPRPSVLPRP,0.226
4,RRIRNRPPRLPRPRPRPPIKPRP,-0.279
5,RRIRMRPPRLPRPRPRPNVSPRP,0.141
6,RRIRFRPPRLPRPRPRPSWQPRP,-0.149
7,RRIRNRPPRLPRPRPRPNRYPRP,-0.0433
8,RRIRDRPPRLPRPRPRPKEDPRP,0.337
9,RRIRKRPPRLPRPRPRPKNGPRP,0.173
10,RRIRCRPPRLPRPRPRPHLRPRP,0.144
11,RRIRKRPPRLPRPRPRPDQIPRP,-0.0414
12,RRIRQRPPRLPRPRPRPNQNPRP,-0.24
13,RRIRCRPPRLPRPRPRPEQWPRP,0.594
14,RRIRRRPPRLPRPRPRPQYKPRP,-0.401
15,RRIRPRPPRLPRPRPRPNFFPRP,0.323
16,RRIRWRPPRLPRPRPRPVPDPRP,-0.101
17,RRIRDRPPRLPRPRPRPPSCPRP,0.379
18,RRIRARPPRLPRPRPRPAVVPRP,0.16
19,RRIRFRPPRLPRPRPRPWNWPRP,0.0169
20,RRIRNRPPRLPRPRPRPPEDPRP,0.174
21,RRIRERPPRLPRPRPRPLHTPRP,-0.674
22,RRIRGRPPRLPRPRPRPWCGPRP,0.58
23,RRIRERPPRLPRPRPRPTSQPRP,-0.235
24,RRIRLRPPRLPRPRPRPHLYPRP,0.61
25,RRIRHRPPRLPRPRPRPFACPRP,-0.205

row,Sequence,shrunken log2 fold change
1,RRIRPRPPRLPRPRPRPDQMPRP,0.196
2,RRIRVRPPRLPRPRPRPAGTPRP,0.146
3,RRIRNRPPRLPRPRPRPHKAPRP,0.00883
4,RRIRARPPRLPRPRPRPWIFPRP,-0.114
5,RRIRDRPPRLPRPRPRPLFWPRP,0.516
6,RRIRSRPPRLPRPRPRPVCNPRP,0.413
7,RRIRIRPPRLPRPRPRPWVTPRP,-0.0476
8,RRIRVRPPRLPRPRPRPMITPRP,0.104
9,RRIRSRPPRLPRPRPRPFMDPRP,-0.519
10,RRIRTRPPRLPRPRPRPHSTPRP,-0.374
11,RRIRVRPPRLPRPRPRPYTAPRP,-0.649
12,RRIRARPPRLPRPRPRPPCCPRP,0.571
13,RRIRVRPPRLPRPRPRPDCRPRP,-0.0921
14,RRIRGRPPRLPRPRPRPMNCPRP,0.0167
15,RRIRGRPPRLPRPRPRPVMNPRP,0.434
16,RRIRDRPPRLPRPRPRPKLNPRP,0.0523
17,RRIRCRPPRLPRPRPRPGEYPRP,0.0239
18,RRIRIRPPRLPRPRPRPHQHPRP,-0.351
19,RRIRQRPPRLPRPRPRPPFIPRP,-0.0092
20,RRIRERPPRLPRPRPRPTCFPRP,-0.133
21,RRIRRRPPRLPRPRPRPEIQPRP,0.0536
22,RRIRRRPPRLPRPRPRPMNPPRP,0.212
23,RRIRGRPPRLPRPRPRPPWWPRP,0.953
24,RRIRHRPPRLPRPRPRPKKLPRP,-0.104
25,RRIRSRPPRLPRPRPRPHVCPRP,0.0517

row,Sequence,shrunken log2 fold change
1,RRIRFRPPRLPRPRPRPFDFPRP,-0.692
2,RRIRERPPRLPRPRPRPIRPPRP,-0.0241
3,RRIRNRPPRLPRPRPRPHRPPRP,0.128
4,RRIRLRPPRLPRPRPRPWCVPRP,-0.35
5,RRIRNRPPRLPRPRPRPSCAPRP,-0.0999
6,RRIRSRPPRLPRPRPRPVCKPRP,-0.0891
7,RRIRQRPPRLPRPRPRPAHPPRP,0.181
8,RRIRIRPPRLPRPRPRPLMSPRP,-0.372
9,RRIRMRPPRLPRPRPRPPTAPRP,1.03
10,RRIRDRPPRLPRPRPRPVCGPRP,0.979
11,RRIRNRPPRLPRPRPRPLHMPRP,-0.372
12,RRIRRRPPRLPRPRPRPKETPRP,0.17
13,RRIRPRPPRLPRPRPRPAGCPRP,0.386
14,RRIRWRPPRLPRPRPRPWWHPRP,0.357
15,RRIRCRPPRLPRPRPRPGWAPRP,0.606
16,RRIRCRPPRLPRPRPRPILRPRP,0.103
17,RRIRRRPPRLPRPRPRPKDYPRP,-0.485
18,RRIRHRPPRLPRPRPRPMKNPRP,0.0372
19,RRIRVRPPRLPRPRPRPPDSPRP,-0.136
20,RRIRARPPRLPRPRPRPAYLPRP,0.365
21,RRIRFRPPRLPRPRPRPMGPPRP,-0.238
22,RRIRLRPPRLPRPRPRPDERPRP,0.0169
23,RRIRKRPPRLPRPRPRPVCVPRP,0.573
24,RRIRDRPPRLPRPRPRPGQIPRP,0.0221
25,RRIRWRPPRLPRPRPRPIFHPRP,-0.101

row,Sequence,shrunken log2 fold change
1,RRIRQRPPRLPRPRPRPSRCPRP,-0.177
2,RRIRCRPPRLPRPRPRPLNRPRP,-0.413
3,RRIRGRPPRLPRPRPRPGHHPRP,0.16
4,RRIRVRPPRLPRPRPRPDKSPRP,-0.0971
5,RRIRDRPPRLPRPRPRPDHNPRP,0.0311
6,RRIRHRPPRLPRPRPRPVGLPRP,0.119
7,RRIRPRPPRLPRPRPRPDQLPRP,-0.0341
8,RRIRWRPPRLPRPRPRPGCQPRP,-0.0225
9,RRIRNRPPRLPRPRPRPNWEPRP,0.0299
10,RRIRWRPPRLPRPRPRPNQAPRP,-0.0796
11,RRIRVRPPRLPRPRPRPALIPRP,0.342
12,RRIRERPPRLPRPRPRPHNEPRP,-0.438
13,RRIRIRPPRLPRPRPRPPYKPRP,-0.386
14,RRIRRRPPRLPRPRPRPMPIPRP,0.25
15,RRIRIRPPRLPRPRPRPANLPRP,-0.584
16,RRIRGRPPRLPRPRPRPRRTPRP,0.67
17,RRIRKRPPRLPRPRPRPQRWPRP,0.0222
18,RRIRERPPRLPRPRPRPVIRPRP,-0.305
19,RRIRNRPPRLPRPRPRPKPSPRP,0.137
20,RRIRPRPPRLPRPRPRPGVYPRP,0.0962
21,RRIRCRPPRLPRPRPRPQHPPRP,-0.132
22,RRIRGRPPRLPRPRPRPNMPPRP,-0.317
23,RRIRTRPPRLPRPRPRPGAKPRP,0.524
24,RRIRFRPPRLPRPRPRPWRGPRP,0.172
25,RRIRERPPRLPRPRPRPTHFPRP,-0.382

row,Sequence,shrunken log2 fold change
1,RRIRNRPPRLPRPRPRPMYEPRP,0.0112
2,RRIRHRPPRLPRPRPRPWIHPRP,-0.197
3,RRIRCRPPRLPRPRPRPPWPPRP,0.54
4,RRIRERPPRLPRPRPRPNDHPRP,-0.622
5,RRIRERPPRLPRPRPRPPLWPRP,0.779
6,RRIRDRPPRLPRPRPRPGVPPRP,0.000778
7,RRIRERPPRLPRPRPRPPICPRP,-0.302
8,RRIRMRPPRLPRPRPRPQGHPRP,0.0616
9,RRIRLRPPRLPRPRPRPPWAPRP,0.632
10,RRIRCRPPRLPRPRPRPNPNPRP,-0.135
11,RRIRHRPPRLPRPRPRPWFDPRP,-0.0263
12,RRIRVRPPRLPRPRPRPDYQPRP,0.0174
13,RRIRWRPPRLPRPRPRPKCSPRP,0.0308
14,RRIRDRPPRLPRPRPRPTNYPRP,-0.48
15,RRIRDRPPRLPRPRPRPLKEPRP,-0.277
16,RRIRCRPPRLPRPRPRPSIVPRP,-0.965
17,RRIRVRPPRLPRPRPRPFDWPRP,-0.103
18,RRIRWRPPRLPRPRPRPTNPPRP,-0.0172
19,RRIRFRPPRLPRPRPRPGPIPRP,0.218
20,RRIRSRPPRLPRPRPRPPCTPRP,-0.174
21,RRIRSRPPRLPRPRPRPDPCPRP,0.0809
22,RRIRGRPPRLPRPRPRPFLEPRP,0.625
23,RRIRGRPPRLPRPRPRPDAYPRP,0.829
24,RRIRFRPPRLPRPRPRPDAYPRP,-0.147
25,RRIRRRPPRLPRPRPRPWRHPRP,0.0972
